Eight molecules from patent US20190262327A1 (AstraZeneca / MedImmune, published 2019) can be followed below.

Positions count from the first letter of the chain named.

The target of assay [1] is T1, biotinylated synthetic human Amyloid beta 1-42 peptide (human, UniProt P05067 672-713, biotinylated (N-terminal biotin in Example 4)).
T1 construct: domain: Amyloid beta 1-42 peptide; Numbers 1-42 count on the Amyloid beta peptide, not on APP; also called biotinylated human Amyloid beta 1-42; N-terminal biotin Abeta 1-42
Kind of assay: HTRF epitope competition; purified scFv titrated; competitor Abet0144-GL IgG1-TM. How it is done:
Two thousand and twenty four scFv chosen at random from selection rounds 3 and 4 of the targeted mutagenesis approach described in section 1.2 were expressed in bacteria to produce unpurified periplasmic scFv.
One thousand six hundred and seventy two scFv, randomly selected from selection rounds 9 to 11, were screened in an epitope competition assay as described in section 1.3.
Where the assay was performed more than once, the absolute range of IC₅₀ values is provided.
On the technique in general: TR-FRET usually uses a lanthanide donor and a delayed reading to cut background.

The target of assay [2] is T1, biotinylated synthetic human Amyloid …. Kind of assay: SPR (ProteOn); biotinylated peptide on streptavidin chip, scFv in solution. As for the experimental part: These experiments were performed essentially as described by Karlsson et al. (Karlsson et al., 1991).
The chip surface was regenerated between cycles by a single 60 second injection of 10 mM Glycine pH 2.0 to remove scFv bound to the peptide.
Each scFv at 100-200 nM was sequentially passed over the peptide surface for a sufficient amount of time to observe sensorgrams that could be fitted to an appropriate binding model with confidence. An irrelevant scFv blank was subtracted from the main dataset to reduce the impact of any buffer artefacts or non-specific binding effects. An appropriate binding model was then fitted to the data.

T1 sequence (P05067 672-713 limits assumed): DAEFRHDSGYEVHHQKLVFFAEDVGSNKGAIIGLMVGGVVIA

B1: Abet0343 scFv (scFv, V domains shown, not shown: small tags and cut ends)
VH: EVQLLESGGGLVQPGGSLRLSCAASGFNFNHQVMWWVRQAPGKGLEWVSVIGKTNENIAYADSVKGRFTISRDNSKNTLYLQMNSLRAEDTAVYYCAREWMDHSRPYYYYGMDVWGQGTLVTVSS
VL: QSVLTQPPSVSVSPGQTASITCSGHNLEDKFASWYQQKSGQSPVLVIYRDDKRPSGIPERFSASNSGHTATLTISGTQATDEADYYCSSQDTVTRVFGGGTKLTVL
notes: Purified scFv expressed in E. coli
In assay [1], B1 gave an IC50 of 0.48 nM. Also, in assay [2], the dissociation constant Kd was found to be 0.188 nM, the koff is 2.25e-05 s⁻¹ and the kon worked out at 120000 M⁻¹ s⁻¹.

B2: Abet0378 scFv (scFv, V domains shown, not shown: small tags and cut ends)
VH: B1 VH with N28P, N30E, H31T, Q32D, V33I, K53T, T54N, N55T, E56D, I58V
VL: B1 VL with Q1S, S2Y, V3E, S39P
Consider B2, for which the IC50 in assay [1] worked out at 0.97 nM. In assay [2], this molecule registered a Kd of 0.472 nM, an off-rate constant (koff) of 6.41e-05 s⁻¹ and an on-rate (kon) of 136000 M⁻¹ s⁻¹.

B3: Abet0329 scFv (scFv, V domains shown, not shown: small tags and cut ends)
VH: EVQLLESGGGLVQPGGSLRLSCAASTFNLKRETMWWVRQAPGKGLEWVSVIGSHQERTSYADSVKGRFTISRDNSKNTLYLQMNSLRAEDTAVYYCAREWMDHSRPYYYYGMDVWGQGTLVTVSS
VL: B1 VL with Q1S, S2Y, V3E, L27V, E28S, F31W, A32M, S33T, S39P
notes: as for B1
B3 displayed a half-maximal inhibitory concentration (IC50) in assay [1] of 0.63 nM. Further, in assay [2], binding was characterised by a dissociation constant (Kd) of 0.701 nM, the koff was determined as 0.000138 s⁻¹ and the association rate constant (kon) amounted to 197000 M⁻¹ s⁻¹.

B4: Abet0379 scFv (scFv, V domains shown, not shown: small tags and cut ends)
VH: EVQLLESGGGLVQPGGSLRLSCAASGFDFAETPLWWVRQAPGERLEWVSVIGSNQNKTAYADSVKGRFTISRDNSKDTLYLQMNSLRAEDTAVYYCAREWMDHSRPYYYYGMDVWGQGTLVTVSS
VL: B1 VL with E82G, S88A, S89T, T92N, V93F
notes: as for B1
B4: in assay [1], the IC50 came to 0.69 nM. In assay [2], this molecule gave a Kd of 0.327 nM, a koff of 4.39e-05 s⁻¹ and a kon of 134000 M⁻¹ s⁻¹.

B5: Abet0381 scFv (scFv, V domains shown, not shown: small tags and cut ends)
VH: EVQLLESGGGLVQPGGSLRLSCAASSPSFPRETMWWVRQAPGKGLEWVSVIGTQPNRLTYADSVKGRFTISRDNSKNTLYLQMNSLRAEDTAVYYCAREWMDHSRPYYYYGIDVWGQGTLVTVSP
VL: B1 VL with Q1S, S2Y, V3E, V12A, A32V, S39P, D84N, V96A
notes: as for B1
In assay [1], B5 returned a concentration for half-maximal inhibition (IC50) of 0.47 nM. In assay [2], this molecule showed a dissociation constant Kd of 0.241 nM, an off-rate (koff) of 5.14e-05 s⁻¹ and an on-rate constant (kon) of 213000 M⁻¹ s⁻¹.

B6: Abet0328 scFv (scFv, V domains shown, not shown: small tags and cut ends)
VH: EVQLLESGGGLVQPGGSLRLSCAASRDPFKADTMWWVRQAPRKRLEWVSVIGAHTTNSAYADSVKGRFTISRDNSKNTLYLQMNSLRAEDTAVYYCAREWMDRSRPYYYYGMDVWGQGTLVTVSS
VL: B1 VL with Q1S, S2Y, V3E, A18V, H25R, S39P, I57V
notes: as for B1
For B6, in assay [1], the IC50 was 0.55 nM. For the same molecule, in assay [2], binding was put at a Kd of 0.729 nM, the koff was 0.000103 s⁻¹ and the kon was 141000 M⁻¹ s⁻¹.

B7: Abet0373 scFv (scFv, V domains shown, not shown: small tags and cut ends)
VH: EVQLLESGGGLVQPGGSLRLSCVASGFDFERSVMWWVRQAPGKRLEWVSVIGSGKTNITYADSVKGRFTISRDNSKNTLYLQMNSLRAEDTAVYYCAREWMDHSRPYYYYGMDVWGQGTLVTVSS
VL: B1 VL with Q1S, S2Y, V3E, S39P, G56E
notes: as for B1
For the molecule B7, the IC50 in assay [1] amounted to 0.84 nM. In assay [2], this molecule displayed a Kd of 0.483 nM, a koff of 8.92e-05 s⁻¹ and a kon of 185000 M⁻¹ s⁻¹.

B8: Abet0383 scFv (scFv, V domains shown, not shown: small tags and cut ends)
VH: EVQLLESGGGLVQPGGSLKLSCAASGFTFDWYPMWWVRQAPGKRLEWISVIGADNAKIAYADSVKGRFTISRDNSKNTLYLQMNSLRAEDTAVYYCAREWMGHSRPYYYYGMDVWGQGTPVTVSS
VL: B1 VL with Q1S, S2Y, V3E, E28G, S39P
notes: as for B1
With B8, in assay [1], the IC50 was determined as 0.75 nM. In assay [2], this molecule showed a dissociation constant Kd of 0.217 nM, a dissociation rate constant (koff) of 3.94e-05 s⁻¹ and a kon of 181000 M⁻¹ s⁻¹.

The IC50 is the concentration needed to halve the response being measured. By Kd is commonly meant the equilibrium constant for the complex coming apart. The low end stands for tighter binding, the high end for weaker binding. Usually koff stands for the rate constant with which the complex falls apart. A lower koff goes with a long-lived complex. One may read the kon as the rate constant with which the complex forms. A higher kon goes with faster complex formation.
